Results from publication PMC3020727 (The Journal of Biological Chemistry, 2010).
No end group written: not given here. *: point of attachment. Biotin = O=C1N[C@H]2[C@H](CS[C@H]2CCCCC(=O)*)N1

What was measured:
[1] = molecular target: T1, RbAp48 (full length, residues 1-425), purified recombinant (UniProt Q09028 1-425); experiment: ITC
[2] = molecular target: T1, RbAp48 (full length, residues 1-425), …; experiment: SPR

T1 sequence (Q09028 whole entry, the tested form may be a part): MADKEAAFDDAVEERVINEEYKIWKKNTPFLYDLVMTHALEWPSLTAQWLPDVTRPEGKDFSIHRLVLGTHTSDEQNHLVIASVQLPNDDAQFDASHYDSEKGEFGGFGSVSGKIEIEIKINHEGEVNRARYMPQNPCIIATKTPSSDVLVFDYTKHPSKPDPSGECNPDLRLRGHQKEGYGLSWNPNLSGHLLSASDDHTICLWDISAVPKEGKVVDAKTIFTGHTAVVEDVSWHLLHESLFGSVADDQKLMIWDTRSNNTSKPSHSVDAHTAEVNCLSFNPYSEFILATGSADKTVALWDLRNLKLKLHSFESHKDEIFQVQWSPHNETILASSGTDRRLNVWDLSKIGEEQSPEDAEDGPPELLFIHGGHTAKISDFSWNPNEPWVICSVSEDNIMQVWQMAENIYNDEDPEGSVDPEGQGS

Ka [1] | Ka [2] | Binder
1.54e+06 M⁻¹ |  | MSRRKQSNPRQI [FOG-1-(1-12) peptide]
 | 1.36e+06 M⁻¹ | Biotin-MSRRKQSNPRQIKRS [biotinylated FOG-1-(1-15) peptide]
